According to patent US20110039780A1 (Pfizer, published 2011):
Positions count from the first letter of the chain named. Numbers in names are those of the source. Values belong to the binder of their own block, whether it stands above or below them.

What was measured:
[1] = target: T1, α-thrombin (UniProt P00734 328-363; P00734 364-622); test: Biacore assay
Protocol: (§1) The binding abilities of GPIbα-290/2V-Ig and GPIbα-290-2V/FFF-Ig to vWF and a-thrombin were evaluated in vitro using a Biacore assay.

[2] = target: T1, α-thrombin; test: SPR (BiaCore)
[3] = target: T2, intact von Willebrand factor (UniProt P04275 764-2813, limits assumed); test: SPR (BiaCore); fully sulfated isoform
T2 construct: also called vWF; intact vWF

[4] = target: T2, intact von Willebrand factor; test: SPR (BiaCore); 6 sulfated (fully sulfated)
[5] = target: T3, vWF A1 domain (UniProt P04275 1261-1468, limits assumed); test: binding constant; method not stated in Example 3
T3 construct: domain: A1; also called vWF A1 fragment

[6] = target: T2, intact von Willebrand factor; test: binding constant; method not stated in Example 3
[7] = target: T3, vWF A1 domain; test: Biacore assay
[8] = target: T3, vWF A1 domain; test: Biacore assay; remark: listed apart in the source
Protocol: as §1

[9] = target: T2, intact von Willebrand factor; test: SPR (BiaCore); non-sulfated isoform
[10] = target: T2, intact von Willebrand factor; test: SPR (BiaCore); 0 sulfated (unsulfated)

Kd [1]: 760 nM
B1: GPIbα-IgG1Fc fusion protein with a wild-type human GPIbα sequence (Fc fusion)
chain: HPICEVSKVASHLEVNCDKRNLTALPPDLPKDTTILHLSENLLYTFSLATLMPYTRLTQLNLDRCELTKLQVDGTLPVLGTLDLSHNQLQSLPLLGQTLPALTVLDVSFNRLTSLPLGALRGLGELQELYLKGNELKTLPPGLLTPTPKLEKLSLANNNLTELPAGLLNGLENLDTLLLQENSLYTIPKGFFGSHLLPFAFLHGNPWLCNCEILYFRRWLQDNAENVYVWKQGVDVKAMTSNVASVQCDNSDKFPVYKYPGKGCPTLGDEGDTDLYDYYPEEDTEGDKVR
modifications: tyrosines 276, 278, 279 can be sulfated; sulfation state of the tested material not stated
notes: Made in CHO cells; dimerized forms were isolated; also called WT; GPIb-Ig WT; not shown: IgG1 Fc

fold higher binding affinity than the unsulfated isoform [2]: ~80 fold | Kd [3]: 119 nM | Kd [4]: 113 to 521 nM
B2: GPIbα-IgG1Fc fusion protein 1V (M239V), fully sulfated isoform (Fc fusion)
chain: B1 chain with M239V
modifications: sulfotyrosine at 276, 278 and 279 (fully sulfated: sulfation state 6 per dimer)
notes: also called 1V 6 sulfated; GP Ibα-Ig239V fully sulfated isoform; not shown: IgG1 Fc

Ka [5]: 1.5e+09 M⁻¹ | Ka [6]: 1.7e+09 M⁻¹
B3: GPIbα fusion protein variant 3V/C65S (Fc fusion, not shown: large carriers)
chain: B1 chain with C65S, G233V, K237V, M239V
notes: also called 3V/C-S

fold decrease in binding against GPIb-290/2V-Ig [7]: ~3 fold | Kd [8]: 15.4 nM | Kd [1]: 35800 nM | Ka [5]: 9.1e+07 M⁻¹ | Ka [6]: 2.4e+08 M⁻¹
B4: GPIb-290/2V/FFF-Ig (GPIb-290/2V-Ig with Tyr-276, 278, 279 changed to phenylalanine) (Fc fusion)
chain: B1 chain with G233V, M239V, Y276F, Y278F, Y279F
notes: Non-sulfated chimera; also called GPIbα-290/2V/FFF-Ig; GPIbα-290-2V/FFF-Ig; not shown: human IgG1 Fc domain

Kd [8]: 5 nM | Kd [1]: 630 nM | Ka [5]: 1.9e+08 M⁻¹ | Ka [6]: 5.6e+08 M⁻¹
B5: GPIb-290/2V-Ig (N-terminal 290 amino acids of GPIbα with G233V M239V fused to a human IgG1 Fc domain) (Fc fusion)
chain: B1 chain with G233V, M239V
modifications: sulfated tyrosines at 276, 278, 279 (extent not stated)
notes: also called GPIb2V-Ig; GP Ib-Ig2V; not shown: human IgG1 Fc domain

fold higher binding affinity than the unsulfated isoform [2]: ~80 fold | Kd [3]: 4 nM | Kd [4]: 3.4 to 15 nM
B6: GPIbα-IgG1Fc fusion protein 2V (G233V M239V), fully sulfated isoform (Fc fusion)
chain: B1 chain with G233V, M239V
modifications: sulfotyrosine at 276, 278 and 279 (fully sulfated: sulfation state 6 per dimer)
notes: also called 2V 6 sulfated; GP Ib-Ig2V fully sulfated isoform; not shown: IgG1 Fc

Kd [9]: 12 nM | Kd [10]: 3.4 to 15 nM
B7: GPIbα-IgG1Fc fusion protein 2V (G233V M239V), non-sulfated isoform (Fc fusion)
chain: B1 chain with G233V, M239V
modifications: tyrosines 276, 278, 279 not sulfated (sulfation state 0)
notes: also called 2V 0 sulfated; GP Ib-Ig2V unsulfated isoform; not shown: IgG1 Fc

Ka [6]: 7.7e+07 M⁻¹
B8: GPIbα-IgG1Fc fusion protein with the M239V (1V) substitution (Fc fusion)
chain: B1 chain with M239V
modifications: tyrosines 276, 278, 279 can be sulfated; sulfation state not stated
notes: also called GP Ibα-Ig239V; not shown: IgG1 Fc

Kd [9]: 284 nM | Kd [10]: 113 to 521 nM
B9: GPIbα-IgG1Fc fusion protein 1V (M239V), non-sulfated isoform (Fc fusion)
chain: B1 chain with M239V
modifications: tyrosines 276, 278, 279 not sulfated (sulfation state 0)
notes: also called 1V 0 sulfated; GP Ibα-Ig239V unsulfated isoform; not shown: IgG1 Fc

Ka [5]: 1.5e+09 M⁻¹ | Ka [6]: 1.7e+09 M⁻¹
B10: GPIbα fusion protein variant 3V (G233V K237V M239V) (Fc fusion, not shown: large carriers)
chain: B1 chain with G233V, K237V, M239V
